What was measured:
HeLa Kyoto [1] = experiment: solubility in G1/S (NP-40 vs SDS abundance) (log2 ratio); higher = more soluble; conditions: cell cycle stage: G1/S
HeLa Kyoto [2] = experiment: melting temperature (median over replicates), in situ; higher = more thermally stable
HeLa Kyoto [3] = experiment: solubility change mitosis vs G1/S (difference of NP-40 vs SDS log2 ratios) (log2 ratio difference); higher = more soluble in mitosis
HeLa Kyoto [4] = experiment: thermal stability score vs G1/S (z-score of summed log2 fold changes over temperatures); higher = more thermally stable than in G1/S
[5] = cell cycle stage: early G1 (4.5 h after nocodazole release)
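Throughout, for melting temperature (median over replicates), in situ: HeLa Kyoto cells synchronized by double thymidine or nocodazole block, proteins quantified by TMT10plex mass spectrometry, three independent biological replicates.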
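Throughout, for solubility change mitosis vs G1/S (difference of NP-40 vs SDS log2 ratios): synchronized HeLa Kyoto cells (double thymidine block for G1/S, nocodazole release for mitosis), protein amounts in NP-40 versus SDS lysates quantified by mass spectrometry, three biological replicates.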
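Throughout, for solubility in G1/S (NP-40 vs SDS abundance): HeLa Kyoto cells arrested at G1/S by double thymidine block, proteins quantified by TMT10plex mass spectrometry in mild NP-40 versus SDS extracts, three biological replicates.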
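Throughout, for thermal stability score vs G1/S (z-score of summed log2 fold changes over temperatures): synchronized HeLa Kyoto cells, proteins quantified by TMT10plex mass spectrometry, three biological replicates, mitosis taken 0.5 h after nocodazole release, G1/S directly after double thymidine block.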

| Substance | solubility in G1/S (log2) (HeLa Kyoto [1]) | melting temperature (HeLa Kyoto [2]; cell cycle stage: G1/S) | melting temperature (HeLa Kyoto [2]; cell cycle stage: mitosis) | solubility change mitosis (log2) (HeLa Kyoto [3]) | thermal stability score (HeLa Kyoto [4]; [5]) | thermal stability score (HeLa Kyoto [4]; cell cycle stage: mitosis) |
| --- | --- | --- | --- | --- | --- | --- |
| MKGSRIELGDVTPHNIKQLKRLNQVIFPVSYNDKFYKDVLEVGELAKLAYFNDIAVGAVCCRVDHSQNQKRLYIMTLGCLAPYRRLGIGTKMLNHVLNICEKDGTFDNIYLHVQISNESAIDFYRKFGFEIIETKKNYYKRIEPADAHVLQKNLKVPSGQNADVQKTDN [NAA50] | 0.325 | 53.1 °C | 53.8 °C | -0.0822 | 0.726 | -0.495 |
| MAERAALEELVKLQGERVRGLKQQKASAELIEEEVAKLLKLKAQLGPDESKQKFVLKTPKGTRDYSPRQMAVREKVFDVIIRCFKRHGAEVIDTPVFELKETLMGKYGEDSKLIYDLKDQGGELLSLRYDLTVPFARYLAMNKLTNIKRYHIAKVYRRDNPAMTRGRYREFYQCDFDIAGNFDPMIPDAECLKIMCEILSSLQIGDFLVKVNDRRILDGMFAICGVSDSKFRTICSSVDKLDKVSWEEVKNEMVGEKGLAPEVADRIGDYVQQHGGVSLVEQLLQDPKLSQNKQALEGLGDLKLLFEYLTLFGIDDKISFDLSLARGLDYYTGVIYEAVLLQTPAQAGEEPLGVGSVAAGGRYDGLVGMFDPKGRKVPCVGLSIGVERIFSIVEQRLEALEEKIRTTETQVLVASAQKKLLEERLKLVSELWDAGIKAELLYKKNPKLLNQLQYCEEAGIPLVAIIGEQELKDGVIKLRSVTSREEVDVRREDLVEEIKRRTGQPLCIC [HARS] | 0.354 | 53.5 °C | 53 °C | -0.113 | 5.06 | 4.5 |
| MDLFGDLPEPERSPRPAAGKEAQKGPLLFDDLPPASSTDSGSGGPLLFDDLPPASSGDSGSLATSISQMVKTEGKGAKRKTSEEEKNGSEELVEKKVCKASSVIFGLKGYVAERKGEREEMQDAHVILNDITEECRPPSSLITRVSYFAVFDGHGGIRASKFAAQNLHQNLIRKFPKGDVISVEKTVKRCLLDTFKHTDEEFLKQASSQKPAWKDGSTATCVLAVDNILYIANLGDSRAILCRYNEESQKHAALSLSKEHNPTQYEERMRIQKAGGNVRDGRVLGVLEVSRSIGDGQYKRCGVTSVPDIRRCQLTPNDRFILLACDGLFKVFTPEEAVNFILSCLEDEKIQTREGKSAADARYEAACNRLANKAVQRGSADNVTVMVVRIGH [ILKAP] | 0.239 | 49.3 °C | 49.8 °C | -0.0534 | 0.735 | 1.5 |
| MNLLPKSSREFGSVDYWEKFFQQRGKKAFEWYGTYLELCGVLHKYIKPREKVLVIGCGNSELSEQLYDVGYRDIVNIDISEVVIKQMKECNATRRPQMSFLKMDMTQMEFPDASFQVVLDKGTLDAVLTDEEEKTLQQVDRMLAEVGRVLQVGGRYLCISLAQAHILKKAVGHFSREGWMVRVHQVANSQDQVLEAEPQFSLPVFAFIMTKFRPVPGSALQIFELCAQEQRKPVRLESAERLAEAVQERQQYAWLCSQLRRKARLGSVSLDLCDGDTGEPRYTLHVVDSPTVKPSRDNHFAIFIIPQGRETEWLFGMDEGRKQLAASAGFRRLITVALHRGQQYESMDHIQAELSARVMELAPAGMPTQQQVPFLSVGGDIGVRTVQHQDCSPLSGDYVIEDVQGDDKRYFRRLIFLSNRNVVQSEARLLKDVSHKAQKKRKKDRKKQRPADAEDLPAAPGQSIDKSYLCCEHHKAMIAGLALLRNPELLLEIPLALLVVGLGGGSLPLFVHDHFPKSCIDAVEIDPSMLEVATQWFGFSQSDRMKVHIADGLDYIASLAGGGEARPCYDVIMFDVDSKDPTLGMSCPPPAFVEQSFLQKVKSILTPEGVFILNLVCRDLGLKDSVLAGLKAVFPLLYVRRIEGEVNEILFCQLHPEQKLATPELLETAQALERTLRKPGRGWDDTYVLSDMLKTVKIV [METTL13] | -0.167 | 49.3 °C | 48.9 °C | -0.0232 | 0.527 | 1.18 |
| MSRFVQDLSKAMSQDGASQFQEVIRQELELSVKKELEKILTTASSHEFEHTKKDLDGFRKLFHRFLQEKGPSVDWGKIQRPPEDSIQPYEKIKARGLPDNISSVLNKLVVVKLNGGLGTSMGCKGPKSLIGVRNENTFLDLTVQQIEHLNKTYNTDVPLVLMNSFNTDEDTKKILQKYNHCRVKIYTFNQSRYPRINKESLLPVAKDVSYSGENTEAWYPPGHGDIYASFYNSGLLDTFIGEGKEYIFVSNIDNLGATVDLYILNHLMNPPNGKRCEFVMEVTNKTRADVKGGTLTQYEGKLRLVEIAQVPKAHVDEFKSVSKFKIFNTNNLWISLAAVKRLQEQNAIDMEIIVNAKTLDGGLNVIQLETAVGAAIKSFENSLGINVPRSRFLPVKTTSDLLLVMSNLYSLNAGSLTMSEKREFPTVPLVKLGSSFTKVQDYLRRFESIPDMLELDHLTVSGDVTFGKNVSLKGTVIIIANHGDRIDIPPGAVLENKIVSGNLRILDH [UGP2] | 0.158 | 55.9 °C | 56 °C | -0.072 | 0.682 | 0.921 |
| MMGLGNGRRSMKSPPLVLAALVACIIVLGFNYWIASSRSVDLQTRIMELEGRVRRAAAERGAVELKKNEFQGELEKQREQLDKIQSSHNFQLESVNKLYQDEKAVLVNNITTGERLIRVLQDQLKTLQRNYGRLQQDVLQFQKNQTNLERKFSYDLSQCINQMKEVKEQCEERIEEVTKKGNEAVASRDLSENNDQRQQLQALSEPQPRLQAAGLPHTEVPQGKGNVLGNSKSQTPAPSSEVVLDSKRQVEKEETNEIQVVNEEPQRDRLPQEPGREQVVEDRPVGGRGFGGAGELGQTPQVQAALSVSQENPEMEGPERDQLVIPDGQEEEQEAAGEGRNQQKLRGEDDYNMDENEAESETDKQAALAGNDRNIDVFNVEDQKRDTINLLDQREKRNHTL [GOLM1] | -0.0257 | 55.9 °C | 59.3 °C | 0.556 | -2.29 | -1.82 |
| MSDLQAAEGPGSWSPTARPGSAGGVGDCQGVEGSQAAASENEDLENKDTSLLASATDPEPCSSPHRPQMVSPVSKDATEDLRKATGPLEAQALVKQDLLPADQAQVLNEMAKYQVPQRSGDIVMIQSEHTGAIDVLSADLESADLLGDHRKVSPPLMAPPCIWTFAKVKEFKSKLGKEKNSRLVVKRGEVVTIRVPTHPEGKRVCWEFATDDYDIGFGVYFDWTPVTSTDITVQVSDSSDDEDEEEEEEEEIEEPVPAGDVERGSRSSLRGRYGEVMPVYRRDSHRDVQAGSHDYPGEGIYLLKFDNSYSLLRNKTLYFHIYYTS [TMED8] | 0.328 | 50.4 °C | 50.3 °C | -0.104 | -0.422 | -0.616 |
| GMPPB | -0.038 | 54.3 °C | 54.1 °C | -0.108 | -1.12 | -4.14 |
| PDE4DIP | 0.0173 | 51.6 °C |  | 0.0943 | 0.534 | 0.401 |
| MAERGELDLTGAKQNTGVWLVKVPKYLSQQWAKASGRGEVGKLRIAKTQGRTEVSFTLNEDLANIHDIGGKPASVSAPREHPFVLQSVGGQTLTVFTESSSDKLSLEGIVVQRAECRPAASENYMRLKRLQIEESSKPVRLSQQLDKVVTTNYKPVANHQYNIEYERKKKEDGKRARADKQHVLDMLFSAFEKHQYYNLKDLVDITKQPVVYLKEILKEIGVQNVKGIHKNTWELKPEYRHYQGEEKSD [GTF2F2] | 0.436 | 52.6 °C | 52.6 °C | -0.0476 | 0.0893 | 0.0418 |
| FAM98A | -0.0181 | 53.4 °C | 51.3 °C | 0.324 | -1.25 | -0.239 |
| MVSWMISRAVVLVFGMLYPAYYSYKAVKTKNVKEYVRWMMYWIVFALYTVIETVADQTVAWFPLYYELKIAFVIWLLSPYTKGASLIYRKFLHPLLSSKEREIDDYIVQAKERGYETMVNFGRQGLNLAATAAVTAAVKSQGAITERLRSFSMHDLTTIQGDEPVGQRPYQPLPEAKKKSKPAPSESAGYGIPLKDGDEKTDEEAEGPYSDNEMLTHKGLRRSQSMKSVKTTKGRKEVRYGSLKYKVKKRPQVYF [REEP3] | -0.258 | 52.8 °C | 54.9 °C | -0.0257 | -1.24 | -0.732 |
| MTDQAFVTLTTNDAYAKGALVLGSSLKQHRTTRRLVVLATPQVSDSMRKVLETVFDEVIMVDVLDSGDSAHLTLMKRPELGVTLTKLHCWSLTQYSKCVFMDADTLVLANIDDLFDREELSAAPDPGWPDCFNSGVFVYQPSVETYNQLLHLASEQGSFDGGDQGILNTFFSSWATTDIRKHLPFIYNLSSISIYSYLPAFKVFGASAKVVHFLGRVKPWNYTYDPKTKSVKSEAHDPNMTHPEFLILWWNIFTTNVLPLLQQFGLVKDTCSYVNVLSDLVYTLAFSCGFCRKEDVSGAISHLSLGEIPAMAQPFVSSEERKERWEQGQADYMGADSFDNIKRKLDTYLQ [GYG1] | 0.0958 | 56.3 °C | 52.1 °C | -0.149 | -3.5 | -5.58 |
| METPAAAAPAGSLFPSFLLLACGTLVAALLGAAHRLGLFYQLLHKVDKASVRHGGENVAAVLRAHGVRFIFTLVGGHISPLLVACEKLGIRVVDTRHEVTAVFAADAMARLSGTVGVAAVTAGPGLTNTVTAVKNAQMAQSPILLLGGAASTLLQNRGALQAVDQLSLFRPLCKFCVSVRRVRDIVPTLRAAMAAAQSGTPGPVFVELPVDVLYPYFMVQKEMVPAKPPKGLVGRVVSWYLENYLANLFAGAWEPQPEGPLPLDIPQASPQQVQRCVEILSRAKRPLMVLGSQALLTPTSADKLRAAVETLGVPCFLGGMARGLLGRNHPLHIRENRSAALKKADVIVLAGTVCDFRLSYGRVLSHSSKIIIVNRNREEMLLNSDIFWKPQEAVQGDVGSFVLKLVEGLQGQTWAPDWVEELREADRQKEQTFREKAAMPVAQHLNPVQVLQLVEETLPDNSILVVDGGDFVGTAAHLVQPRGPLRWLDPGAFGTLGVGAGFALGAKLCRPDAEVWCLFGDGAFGYSLIEFDTFVRHKIPVMALVGNDAGWTQISREQVPSLGSNVACGLAYTDYHKAAMGLGARGLLLSRENEDQVVKVLHDAQQQCRDGHPVVVNILIGRTDFRDGSIAV [ILVBL] | -0.101 | 53.2 °C | 53.7 °C | -0.172 | 0.852 | -0.0354 |
| MVISESMDILFRIRGGLDLAFQLATPNEIFLKKALKHVLSDLSTKLSSNALVFRICHSSVYIWPSSDINTIPGELTDASACKNILRFIQFEPEEDIKRKFMRKKDKKLSDMHQIVNIDLMLEMSTSLAAVTPIIERESGGHHYVNMTLPVDAVISVAPEETWGKVRKLLVDAIHNQLTDMEKCILKYMKGTSIVVPEPLHFLLPGKKNLVTISYPSGIPDGQLQAYRKELHDLFNLPHDRPYFKRSNAYHFPDEPYKDGYIRNPHTYLNPPNMETGMIYVVQGIYGYHHYMQDRIDDNGWGCAYRSLQTICSWFKHQGYTERSIPTHREIQQALVDAGDKPATFVGSRQWIGSIEVQLVLNQLIGITSKILFVSQGSEIASQGRELANHFQSEGTPVMIGGGVLAHTILGVAWNEITGQIKFLILDPHYTGAEDLQVILEKGWCGWKGPDFWNKDAYYNLCLPQRPNMI [UFSP2] | -0.0543 | 51.2 °C | 51 °C | -0.212 | -0.738 | -0.716 |
| MSLLLYYALPALGSYAMLSIFFLRRPHLLHTPRAPTFRIRLGAHRGGSGELLENTMEAMENSMAQRSDLLELDCQLTRDRVVVVSHDENLCRQSGLNRDVGSLDFEDLPLYKEKLEVYFSPGHFAHGSDRRMVRLEDLFQRFPRTPMSVEIKGKNEELIREIAGLVRRYDRNEITIWASEKSSVMKKCKAANPEMPLSFTISRGFWVLLSYYLGLLPFIPIPEKFFFCFLPNIINRTYFPFSCSCLNQLLAVVSKWLIMRKSLIRHLEERGVQVVFWCLNEESDFEAAFSVGATGVITDYPTALRHYLDNHGPAARTS [GDPD3] | -0.262 | 56.4 °C | 55.1 °C | -0.0964 | -0.274 | 0.35 |
